Experimental data reported in US20060142171A1, “Novel alkaline protease” (priority 2003, published 2006).

How the values were obtained:
casein [1] = experiment: Protease activity with casein as substrate (specific activity, pH and temperature profile); assay type: biochemical; settings: for Optimum pH for activity: assayed at 50° C.
Experimental: The AL protease activity with 0.1-4% (w/v) casein and haemoglobin (Sigma), respectively, as protein substrates, was determined using a modified method of Ferrero et al. (1996). The reaction mixture in a total volume of 1 ml containing the substrate and an appropriate amount of the enzyme in 50 mM glycine-NaOH buffer, pH 10 was incubated at […] for 20 min, after which the reaction was terminated by addition of 0.5 ml trichloroacetic acid with subsequent centrifugation. To 0.5 ml supernatant was added 2.5 ml sodium carbonate followed by 0.5 ml of 1 M Folin-Ciocalteau Phenol reagent (Sigma). The reaction mixture was allowed to stand for 30 min-at room temperature before absorbance was measured at 660 nm. One unit of enzyme activity is defined as amount of the enzyme, which released 1 μg tyrosine per minute under the assay conditions.
Protease activity was determined using casein as substrate as described earlier [3.12]. The reaction mixture in a total volume of 2 ml was composed of 1% casein, 50 mM glycine-NaOH buffer, pH 10, and appropriately diluted enzyme. After 20 min incubation at 50° C. the reaction was terminated by adding equal volume of 10% trichloroacetic acid (TCA). After separation of the unreacted casein precipitate by centrifugation, 0.5 ml of clear supernatant was mixed with 2.5 ml of 0.5 M Na2CO3 and 0.5 ml of 1 N Folin-Ciocalteau's phenol reagent. After 30 min at 25° C., absorbance was measured at 660 nm against a reagent blank. One unit of protease activity was defined as the amount of enzyme that released 1 μg of amino acid equivalent to tyrosine per min under the standard assay conditions.
Both proteases were optimally active in the alkaline region.
(§1) The effect of temperature on activity of the two proteases was determined by assaying enzyme activity at different temperatures in glycine-NaOH buffer, pH 10, while the thermal stability was determined by incubating the enzymes at different temperatures followed by measuring the residual activity under standard conditions. These measurements were done both in the presence and absence of 5 mM Ca^2+. […] Its optimum temperature for activity was at 70° C. (FIG. 9A), but when incubated at that temperature the enzyme was inactivated within 1 h (FIG. 10A). […] At temperature values above 50° C. Ca^2+ was absolutely required for the thermal stability of AL-89 protease (FIG. 10B).
(§2) Assay of protease activity was performed according to Ferrero et al. with some modifications. One millilitre of the reaction mixture containing 1% casein in 50 mM glycine-NaOH buffer, pH 10.0 and an appropriate amount of enzyme was incubated at 50° C. for 20 min after which the reaction was terminated by addition of 0.5 ml of trichloroacetic acid and centrifuged. 2.5 ml sodium carbonate was added to 0.5 ml supernatant followed by 0.5 ml of 1 M Folin-Ciocalteau reagent. The reaction mixture was allowed to stand for 30 min at room temperature before measuring the absorbance at 660 nm. One unit of protease activity was defined as the amount of enzyme, which released 1 μg tyrosine per min under standard assay conditions.

haemoglobin = experiment: Protease activity with haemoglobin as substrate; assay type: biochemical; settings: 50 mM glycine-NaOH, pH 10 at 50° C.
casein [2] = experiment: Residual protease activity after incubation (pH, temperature, detergent components); assay type: biochemical; settings: for Enzyme activity after incubation: 90 min at 40° C.; for Residual activity (% of original activity): 1 h at 50° C.
Experimental: The effect of pH on enzyme stability was studied by incubating the enzyme in different buffers of varying pH values at 50° C. for 1 h and then measuring the residual activity using standard assay procedure. AL protease was very stable in a broad pH range, maintaining over 90% of its original activity between pH 6 and 11, and more than 70% activity at pH 12 (FIG. 8A).
as §1, §2
Effect of oxidation by H2O2 on AL protease stability was determined by residual activity measurements because of the temperature-induced decomposition of the peroxide in the calorimeter. […] Residual activity of the AL protease was also studied after incubation with sodium tripolyphosphate (STP; Sigma), sodium-Zeolite 4A (Prayon Tessenderlo, Belgium) and sodium citrate, respectively, representing some of the sequestering agents used in washing detergents. The enzyme activity was unchanged in the presence of 0.01-0.05% (w/v) Zeolite and STP, respectively, after 90 min at 40° C., and more than 80% of the original activity was retained in the presence of 0.5 M citrate (data not shown).

[3] = Circular dichroism spectroscopy; assay type: physicochemical
Experimental: The conformational stability of the AL protease was examined by circular dichroism (CD) spectroscopy and compared with that of Subtilisin Carlsberg (bacterial protease, type VIII; Sigma Chemical Co., St. Louis, USA). The CD spectra of the proteins were obtained on a Jasco spectropolarimeter model J-720, at 25° C. in the far UV range from 195 to 250 nm at a scan rate of 10 nm/min using a sample cell path length of 0.1 cm. The ellipticity values (θ) for every nm wavelength increase were obtained in mdeg directly from the instrument and were recorded online in a computer. An average of 6 scans was calculated and the corresponding no-enzyme spectra were subtracted for each sample.

[4] = Autolytic degradation by SDS-PAGE; assay type: physicochemical; settings: incubation at 50° C. up to 24 h; not shown
Experimental: Autolytic degradation of the protease was investigated by SDS-PAGE. The AL protease and Subtilisin Carlsberg were individually incubated in 10 mM Tris-HCl buffer 8 for 24 h at 50° C. Electrophoresis of the enzyme samples taken at different time intervals was performed according to the method of Laemmli, on 12% polyacrylamide gel using a Mini Protean II equipment (Bio-Rad, Richmond, Calif.).

B1: AL protease: thermostable alkaline, non-Ca2+-dependent serine protease isolated from Nesterenkonia sp. nov. strain AL (DSM 15380); SEQ. ID. NO. 1 (protein, listed as Nesterenkonia sp.)
chain: QNPADSPHIGKVFFSTNQGDFVCSANIVASANQSTVATAGHCLHDGNGGQFARNFVFAPAYDYGESEHGVWAAEELVTSAEWANRGDFEHDYAFAVLETKGGTTVQQQVGTASPIAFNQPRGQYYSAYGYPAAAPFNGQELHSCHGTATNDPMGSSTQGIPCNMTGGSSGGPWFLGQGTGGAQNSVNSYGYTFLPDVMFGPYFGSGAQQNYNYAST
With B1 the “Time to complete hydrolysis of casein” value (casein [1]; 50 mM glycine-NaOH, pH 10 at 50° C.) was at most 20 min, the “Optimum pH for activity” value (casein [1]) was 10 and the “Optimum pH for activity” value (casein [1]; listed as alkaline protease from Nesterenkonia sp. nov. strain) was 10. The “Activity as % of peak activity” value (casein [1]; at pH 12) was “about 60%”, the “Activity as % of maximum activity” value (casein [1]; between pH 7.5 to 11.5) was “over 90%” and the “Optimum temperature for activity” value (casein [1]; glycine-NaOH buffer, pH 10, same in presence and absence of 5 mM Ca^2+) was 70 °C. The Specific activity (casein [1]; purified enzyme, casein as substrate, pH 10, 50° C., listed as Nesterenkonia sp. AL protease) was 1802.3 U/mg, the “Ca^2+ dependence of activity and stability” value (casein [1]; with and without 5 mM Ca^2+, all temperatures tested) was “Ca^2+ independent” and the “Time to complete hydrolysis of haemoglobin” value (haemoglobin) was at most 20 min. The “Enzyme activity after incubation” value (casein [2]; 0.01-0.05% (w/v) STP, data not shown) was “unchanged”, the “Enzyme activity after incubation” value (casein [2]; 0.01-0.05% (w/v) Zeolite, data not shown) was “unchanged” and the Original activity retained (casein [2]; 0.5 M citrate, data not shown) was “more than 80%”. For the same molecule, the “Activity, % of the original” value (casein [2]; 1 M peroxide (H2O2) at 40° C. for 90 min) was 60%, the “Effect on activity relative to 1 M peroxide” value (casein [2]; 1.6 M peroxide (H2O2), 40° C.) was “did not reduce the activity further” and the “Residual activity (% of original activity)” value (casein [2]; between pH 6 and 11) was “over 90%”. For the same molecule, the “Residual activity (% of original activity)” value (casein [2]; pH 12) was “more than 70%”, the Thermal stability (casein [2]; 1 h incubation at 65° C., presence or absence of Ca^2+) was “very good stability” and the Initial activity retained (casein [2]; 90 min incubation with 1% SDS at 40° C., pH 10.0) was “About 75%”. For the same molecule, the Time to inactivation (casein [2]; incubated at 70° C.) was at most 1 h, the “Secondary structure in the presence of SDS” value ([3]; 0.1-1% (w/v) SDS, data not shown) was “no alteration” and the “Secondary structure after incubation” value ([3]; 24 h at 50° C., 10 mM glycine-NaOH buffer, pH 10.0) was “undisturbed”. For the same molecule, the “Degradation on gel electrophoresis” value [4] was “unaltered”.
